T1: recombinant human PGLYRP1 generated in-house (SEQ ID NO: 1) (human, UniProt O75594 22-196)
T1 sequence: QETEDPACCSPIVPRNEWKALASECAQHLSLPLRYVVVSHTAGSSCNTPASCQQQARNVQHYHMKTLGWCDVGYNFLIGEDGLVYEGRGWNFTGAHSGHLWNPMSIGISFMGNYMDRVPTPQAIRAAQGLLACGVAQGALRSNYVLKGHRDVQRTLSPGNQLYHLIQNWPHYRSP

T2: Type II PGLYRP2 on HEK293-6E cells (human, UniProt Q96PD5 22-576)
T2 construct: also called hPGLYRP2; PGRP-L
T2 sequence: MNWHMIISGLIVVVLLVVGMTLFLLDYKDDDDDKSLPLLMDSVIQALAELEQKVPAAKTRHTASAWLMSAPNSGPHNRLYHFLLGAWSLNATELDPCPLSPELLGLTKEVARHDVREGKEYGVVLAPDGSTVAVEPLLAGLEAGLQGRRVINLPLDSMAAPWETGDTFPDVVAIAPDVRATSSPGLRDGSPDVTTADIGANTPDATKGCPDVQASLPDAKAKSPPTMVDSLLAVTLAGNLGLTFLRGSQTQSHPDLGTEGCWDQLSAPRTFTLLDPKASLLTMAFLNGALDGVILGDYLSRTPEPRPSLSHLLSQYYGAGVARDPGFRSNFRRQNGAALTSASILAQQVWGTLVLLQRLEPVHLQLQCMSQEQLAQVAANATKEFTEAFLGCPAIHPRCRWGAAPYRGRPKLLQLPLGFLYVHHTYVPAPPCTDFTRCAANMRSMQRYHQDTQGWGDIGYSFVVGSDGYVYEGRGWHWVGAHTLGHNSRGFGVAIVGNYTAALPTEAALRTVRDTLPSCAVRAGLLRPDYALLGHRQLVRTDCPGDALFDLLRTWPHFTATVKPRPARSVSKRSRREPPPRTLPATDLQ

T3: Type II muPGLYRP1 on HEK293-6E cells (mouse, UniProt O88593 19-182)
T3 construct: whole, on cells; also called mouse PGLYRP1; not shown: Type II membrane anchor; construct is not described in the text
T3 sequence (looked up): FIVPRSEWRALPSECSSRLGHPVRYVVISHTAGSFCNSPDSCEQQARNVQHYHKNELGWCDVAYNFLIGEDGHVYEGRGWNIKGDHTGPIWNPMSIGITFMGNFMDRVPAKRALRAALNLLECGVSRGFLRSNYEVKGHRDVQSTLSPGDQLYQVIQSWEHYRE

T4: Type II PGLYRP4 on HEK293-6E cells (human, UniProt Q96LB8 18-373)
T4 construct: also called hPGLYRP4; PGRP-1b
T4 sequence: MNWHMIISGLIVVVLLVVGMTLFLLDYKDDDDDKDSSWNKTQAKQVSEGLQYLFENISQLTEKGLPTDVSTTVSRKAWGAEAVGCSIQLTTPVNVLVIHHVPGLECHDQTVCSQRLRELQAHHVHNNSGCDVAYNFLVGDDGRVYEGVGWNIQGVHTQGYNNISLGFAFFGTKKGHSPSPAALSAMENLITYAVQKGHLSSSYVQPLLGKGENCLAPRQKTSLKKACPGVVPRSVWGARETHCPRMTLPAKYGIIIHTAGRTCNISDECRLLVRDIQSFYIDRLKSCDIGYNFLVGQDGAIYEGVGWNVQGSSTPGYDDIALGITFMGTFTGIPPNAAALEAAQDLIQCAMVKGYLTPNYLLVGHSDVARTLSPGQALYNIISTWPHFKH

T5: endogenous human PGLYRP1 (neutrophils; RA synovial fluid) (human, UniProt O75594 22-196)
T5 construct: also called PGRP-S; neutrophil-derived PGLYRP1
T5 sequence (looked up): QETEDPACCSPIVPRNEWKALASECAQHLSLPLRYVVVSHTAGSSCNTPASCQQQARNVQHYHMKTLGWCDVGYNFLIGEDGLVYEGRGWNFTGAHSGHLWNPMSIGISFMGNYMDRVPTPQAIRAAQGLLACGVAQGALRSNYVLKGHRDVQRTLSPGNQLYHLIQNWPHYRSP


What was measured:
[1] = target: T1, recombinant human PGLYRP1 generated …; assay: direct ELISA on PGLYRP1 protein (primary screening of hybridoma supernatants)
[2] = target: T2, Type II PGLYRP2 on HEK293-6E cells; assay: flow cytometry on transfected HEK293-6E cells
Description: (§1) 51.2090KZ, BD Biosciences, San Jose Calif., USA) for intracellular staining or 2% FBS/PBS for surface staining: cell pellets were resuspended in a 96-well round bottom plate (to begin with: 160,000 cells/well) with 200 μl cytofix/perm buffer for 15 minutes at 22 C., washed twice with 200 μl 1× PermWash Buffer (diluted 10× in DiH20), stained with 50 μl probe diluted to 5 µg/ml in 1× PermWash buffer, incubated for 1 hour at 4 C., cells were then washed with 200 μl 1× PermWash Buffer, a secondary probe was added in 50 μl 1× PermWash buffer, cells were incubated at 4 C. for 30 minutes, washed twice with 200 μl 1× PermWash Buffer, pellets were resuspended in 50 μl 1:1 PBS diluted CytoFix (BD:554655, San Jose, Calif.), incubated for 5 minutes at 22 C., 150 μl PBS/2% FBS was added, centrifuged for 5 minutes at 300 g, washed 1× with 200 μl PBS/2% FBS and resuspended in 100 μl PBS/2% FBS. Binding was analysed using FACS on LSRII (BD, San Jose Calif., USA).

[3] = target: T3, Type II muPGLYRP1 on HEK293-6E cells; assay: flow cytometry on transfected HEK293-6E cells
Description: as §1

[4] = target: T4, Type II PGLYRP4 on HEK293-6E cells; assay: flow cytometry on transfected HEK293-6E cells
Description: as §1

[5] = target: T5, endogenous human PGLYRP1 (neutrophils; …); assay: crosslinking, immunoprecipitation and LC/MS/MS from human neutrophils; CD83-Fc as control bait

binding result [1] | ratio of MFI of probe staining over negative control staining [2] [ratio] | ratio of MFI of probe staining over negative control staining [4] [ratio] | Binder | also measured
binds | – | – | M-hPGRPS-2F7 (antibody, V domains shown, Tested as hybridoma supernatant) VH: EVQLQQSGPEVVKPGTSVKMSCKASGYTFTNYVMHWVRQKPGQGLEWVGWINPFNDGTNYNENFKNKATLTSDKSSSTAYMELSSLTSEDSAVYYCARSGFITTLIEDYWGQGTTLTVSS VL: NIVMTQSPKYMSMSVGERVTLTCKASESVGSFVSWYQQKADQSPNLLIYGASNRYTGVPDRFTGSGSARDFTLTISSVQAKDLAEYYCGQYYTHPTFGAGTKLELKR | –
– | < 1 | < 1 | huTREML1.Fc dimer (C0246) (Fc fusion, Entry may hold the hCD33 leader; code tied by the name of the construct only; also called huTremL1.Fc (C0246); hTREML1-Fc6mut dimer) QGIVGSLPEVLQAPVGSSILVQCHYRLQDVKAQKVWCRFLPEGCQPLVSSAVDRRAPAGRRTFLTDLGGGLLQVEMVTLQEEDAGEYGCMVDGARGPQILHRVSLNILPPEEEEETHKIGSLAENAFSDPAGSANPLEPSQDEKSIPGTEPKSSDKTHTCPPCPAPEAEGAPSVFLFPPKPKDTLMISRTPEVTCVVVDVSHEDPEVKFNWYVDGVEVHNAKTKPREEQYNSTYRVVSVLTVLHQDWLNGKEYKCKVSNKALPSSIEKTISKAKGQPREPQVYTLPPSREEMTKNQVSLTCLVKGFYPSDIAVEWESNGQPENNYKTTPPVLDSDGSFFLYSKLTVDKSRWQQGNVFSCSVMHEALHNHYTQKSLSLSPGK | ratio of MFI of probe staining over negative control staining [3]: < 1 ratio
– | – | – | hCD83-G4Sx3-hCD83/Fc6mut (CD83-Fc, hCD83 tetramer) (Fc fusion, also called control construct (CD83); control protein) TPEVKVACSEDVDLPCTAPWDPQVPYTVSWVKLLEGGEERMETPQEDHLRGQHYHQKGQNGSFDAPNERPYSLKIRNTTSCNSGTYRCTLQDPDGQRNLSGKVILRVTGCPAQRKEETFKKYRAEGTGGGGSGGGGSGGGGSTPEVKVACSEDVDLPCTAPWDPQVPYTVSWVKLLEGGEERMETPQEDHLRGQHYHQKGQNGSFDAPNERPYSLKIRNTTSCNSGTYRCTLQDPDGQRNLSGKVILRVTGCPAQRKEETFKKYRAEGALAGTEPKSSDKTHTCPPCPAPEAEGAPSVFLFPPKPKDTLMISRTPEVTCVVVDVSHEDPEVKFNWYVDGVEVHNAKTKPREEQYNSTYRVVSVLTVLHQDWLNGKEYKCKVSNKALPSSIEKTISKAKGQPREPQVYTLPPSREEMTKNQVSLTCLVKGFYPSDIAVEWESNGQPENNYKTTPPVLDSDGSFFLYSKLTVDKSRWQQGNVFSCSVMHEALHNHYTQKSLSLSPGK | binding result [5]: no binding (tested: 100 µg/ml)
– | < 1 | < 1 | huTREML2.Fc dimer (C0247) (Fc fusion, Entry may hold the hCD33 leader; code tied by the name of the construct only; also called huTremL2.Fc (C0247); hTREML2-Fc6mut dimer) GPSADSVYTKVRLLEGETLSVQCSYKGYKNRVEGKVWCKIRKKKCEPGFARVWVKGPRYLLQDDAQAKVVNITMVALKLQDSGRYWCMRNTSGILYPLMGFQLDVSPAPQTERNIPFTHLDNILKSGTVTTGQAPTSGPDAPFTTGVMVFTPGLITLPRLLASTRPASKTGYSFTATSTTSQGPRRTMGSQTVTASPSNARDSSAGPESISTKSGDLSTRSPTTGLCLTSRSLLNRLPSMPSIRHQDVYSGTEPKSSDKTHTCPPCPAPEAEGAPSVFLFPPKPKDTLMISRTPEVTCVVVDVSHEDPEVKFNWYVDGVEVHNAKTKPREEQYNSTYRVVSVLTVLHQDWLNGKEYKCKVSNKALPSSIEKTISKAKGQPREPQVYTLPPSREEMTKNQVSLTCLVKGFYPSDIAVEWESNGQPENNYKTTPPVLDSDGSFFLYSKLTVDKSRWQQGNVFSCSVMHEALHNHYTQKSLSLSPGK | –
binds | – | – | M-hPGRPS-2F5 (antibody, V domains shown, Tested as hybridoma supernatant) VH: EVQLVESGGGLVKPGGSLKLSCAASGFSFSDYYMYWVRQTPEKRLEWVAAISDDSTYTYYPDSVKGRFTISRDNAKNNLYLQMSSLKSEDTAMYYCARGGYGNLYAMDYWGQGTSVTVSS VL: QIVLTQSPAIMSASLGERVTMTCTASSSVSSSYLHWYQQKPGSSPKLWIYSTSNLASGVPARFSGSGSGTSYSLTISSMEAEDAATYYCHQYHRSPFTFGSGTKLEIKR | –
– | < 1 | < 1 | huTREM2.Fc dimer (C0248) (Fc fusion, Entry may hold the hCD33 leader; code tied by the name of the construct only; also called huTrem2.Fc (C0248); hTREM2-Fc6mut dimer) HNTTVFQGVAGQSLQVSCPYDSMKHWGRRKAWCRQLGEKGPCQRVVSTHNLWLLSFLRRWNGSTAITDDTLGGTLTITLRNLQPHDAGLYQCQSLHGSEADTLRKVLVEVLADPLDHRDAGDLWFPGESESFEDAHVEHSISRSLLEGEIPFPPTSGTEPKSSDKTHTCPPCPAPEAEGAPSVFLFPPKPKDTLMISRTPEVTCVVVDVSHEDPEVKFNWYVDGVEVHNAKTKPREEQYNSTYRVVSVLTVLHQDWLNGKEYKCKVSNKALPSSIEKTISKAKGQPREPQVYTLPPSREEMTKNQVSLTCLVKGFYPSDIAVEWESNGQPENNYKTTPPVLDSDGSFFLYSKLTVDKSRWQQGNVFSCSVMHEALHNHYTQKSLSLSPGK | –

From patent US20150018528A1 (Novo Nordisk, published 2015)
